Experiment [1] addresses T1, recombinant human MERTK (human, UniProt Q12866 26-499, limits assumed).
T1 construct: Analyte in solution in biolayer interferometry; also called hMer
T1 sequence: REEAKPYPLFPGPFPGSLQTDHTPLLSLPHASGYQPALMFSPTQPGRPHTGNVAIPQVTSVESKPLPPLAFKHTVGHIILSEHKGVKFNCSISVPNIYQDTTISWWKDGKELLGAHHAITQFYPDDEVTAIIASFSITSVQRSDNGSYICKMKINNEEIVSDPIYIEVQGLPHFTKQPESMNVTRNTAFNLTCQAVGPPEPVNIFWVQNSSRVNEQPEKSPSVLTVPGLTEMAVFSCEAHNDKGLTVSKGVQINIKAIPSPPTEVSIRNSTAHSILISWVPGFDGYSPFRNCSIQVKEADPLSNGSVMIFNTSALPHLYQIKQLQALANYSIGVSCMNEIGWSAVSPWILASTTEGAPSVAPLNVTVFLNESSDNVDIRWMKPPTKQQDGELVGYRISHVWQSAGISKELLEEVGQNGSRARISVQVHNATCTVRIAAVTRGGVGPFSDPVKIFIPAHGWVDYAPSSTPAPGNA
Put plainly: biolayer interferometry, M6 loaded on AMQ sensor, hMer as analyte, 1:1 model, local fit at 1.25 nM hMer. How it is done: FIG. 11: M6 binds to MERTK with high affinity. M6 binds to human MERTK with high affinity. A diagram showing antibody binding kinetics for M6 (Mer-M6) against human MERTK (hMer) using biolayer interferometry. Purified M6 was loaded on an AMQ sensor at a concentration of 1 microgram/mL to test binding against analytes in solution. All analytes were prepared at 5 nM with a 2-fold dilution series for a total of 7 concentrations. Kinetic fits were calculated using a 1:1 model, with Local fits for each concentration as well as an overall Global fit.

The target in experiment [2] is T1, recombinant human MERTK. Put plainly: biolayer interferometry, M19 loaded on AMQ sensor, hMer as analyte, 1:1 model, local fit at 5 nM hMer. On the procedure: FIG. 7: M19 binds to human MERTK with high affinity. A diagram showing antibody binding kinetics for M19 (Mer-M19) against human MERTK (hMer) using biolayer interferometry. Purified M19 was loaded on an AMQ sensor at a concentration of 1 microgram/mL to test binding against analytes in solution. All analytes were prepared at 5 nM with a 2-fold dilution series for a total of 7 concentrations. Kinetic fits were calculated using a 1:1 model, with Local fits for each concentration as well as an overall global fit.

B1: antibody M6 (antibody, V domains shown)
VH: QVKLEESGPELKKPGETVKISCKASGYTFTNYGMNWVKQAPGKGLKWMGWINTYTGEPTYADDFKGRFVFSLETSASTAYLQINNLKNEDMATYFCARKSTVVSRYFDVWGAGTTVTVSS
VL: DIVLTQTHKFMSTSVGDRVSITCKASQDVGDAVTWCQQKPGQPPKLLIYWASTRHTGVPDRFTGSGSGTDFTLTINNVQSEDLADYFCQQYRSYPLTFGAGTKLELKR
notes: mouse hybridoma monoclonal antibody; also called Mer-M6
For B1, in the experiment with recombinant human MERTK [1], the Kd was 0.048 nM and the koff was determined as 0.00015 s⁻¹.

B2: antibody M19 (antibody, V domains shown)
VH: EVQLEESGPDLKKPGETVKISCKASNYTFTDYSMHWVKQAPGKGLKWVGWINTDTGEPTYADDFKGRFAFSLETSASTAYLQINNLKNEDTATYFCARWFGAMDYWGQGTSVTVSS
VL: DIVITQSHKFMSTSVGDRVSITCKASQDVTNVVAWYQQKPGQSPKLLIYSASYRYTGVPDRFTGSGSGTDFTFTISSVQAEDLAVYYCQQYYRTPRTFGGGTKLEIKR
notes: mouse hybridoma monoclonal antibody; also called Mer-M19
For B2, in the experiment with recombinant human MERTK [2], the Kd is 0.248 nM and the kon turned out to be 3.83e+06 M⁻¹ s⁻¹.

The record behind these values is patent US20180002444A1 (ROCKEFELLER UNIVERSITY, published 2018).
